Results reported in patent US5714144A, “Human tissue-type plasminogen activator variant” (Genentech, Inc., priority 1995, dated 1998).
Values joined by “and” are separate entries in the source; they are usually repeats but may differ in a detail not shown here. Identical values can stand only once. Like-named read-outs stand apart in the source and are kept apart here.

Experiments:
[1] = Pharmacokinetics of unlabeled rt-PA in rabbits, immunoreactive t-PA by sandwich ELISA, i.v. bolus; format: in vivo; details: for Microconstant K10: elimination from central compartment; for Microconstant K10 / Microconstant K12 / Microconstant K21: Table 3; for Microconstant K12 / Microconstant K21: equilibration with peripheral compartment
Procedure: (§1) The unlabeled human tissue-type plasminogen activator was used as a carrier for the trace amount of labeled human tissue-type plasminogen activator in order to achieve therapeutic levels and to avoid alterations in the pharmacokinetics that could arise from concentration dependence in the clearance pathways. Serial arterial blood samples were collected over a 26 minute period and placed immediately into tubes containing a lyophilized mixture of D-phe-pro-arg-[…] (PPACK) and EDTA at final concentrations of 1 μM and 4.8 mM, respectively. The tubes were placed on ice and plasma was separated. Trichloroacetic acid (TGA) precipitable (intact human tissue-type plasminogen activator) and total radioactivity were measured in each plasma sample.
(§2) The following exponential equation was used: Cp=Ae^-αt +Be^-βt, where Cp is the concentration of rt-PA in the plasma at any time, t and A and B are the y intercepts of the fast and slow clearance phases which have slopes of α and β, respectively. The t1/2 for the α and β phases were calculated as the ratio: 1n2/slope. The results from the curve stripping procedure were used as initial approximations to fit the data to a biexponential model using PC NONLIN. One data set (FIG. 4) could not be fit using PC NONLIN so the data from the curve stripping procedure were used. Co, the plasma concentration at zero time, was the sum of A and B. Vo was calculated as dose divided by Co. Area under the curve (AUC) was determined by formula AUC=A/α+B/β. […] AUC was then used to calculate the clearance using the formula, Clearance=Dose/AUC. The relative contributions of the alpha and beta phases were calculated from the following formulas: [formula]
The data for Table 2 were fit to a model with direct elimination from the central compartment (K10) and equilibration with a peripheral compartment (K12 and K21).
(§3) Two types of data were generated from in vivo clearance studies in rabbits. One is from the immunoreactive human tissue-type plasminogen activator which should be a measure of the clearance of the unlabeled material. […] The curves of plasma concentration versus time from the immunoreactivity and the TGA precipitable counts were fit to the appropriate multiexponential models and the derived pharmacokinetic parameters were compared.

[2] = Pharmacokinetics of 125I labeled rt-PA in rabbits, trichloroacetic acid (TCA) precipitable radioactivity, i.v. bolus; format: in vivo
Text: Arginine, 0.2M, and citrate, 0.1M, (pH 6.0) and Tween 80, 0.01 percent, was the buffer used at all times. All samples were dialyzed into this buffer prior to iodination. pH was adjusted to 8.2 with Tris base prior to iodination. The iodination mixture was passed across a PD-10 column (Pharmacia) equilibrated with pH 6.0 buffer, the radioactive fractions from the void volume were pooled, SDS-PAGE was run and the dried gel was autoradiographed.
as §1, §2, §3
The remaining modified forms of rt-PA were not available in quantities which would allow the pharmacokinetics to be characterized using the above techniques. Therefore the pharmacokinetic characteristics of these materials were determined following iodination.
The labeled rt-PA was always coinjected with 1 mg/kg of unmodified rt-PA. The rt-PA with high mannose oligosaccharide structures at all glycosylation sites, produced in the CHO 15B cell line, was also included in this experiment.

[3] = rabbits; cited from earlier work
[4] = humans; cited from earlier work
rat liver hepatocytes = details: in vitro; cited from earlier work
[5] = clinical trials; cited from earlier work
liver = details: in vivo; cited from earlier work
clot = test: In vitro clot lysis assay (Collen et al.), fibrinolytic activity; format: biochemical
Text: After reduction and carboxymethylation, 34.2 nmoles (expected number is 35) of carboxymethyl cysteine per nmole of rt-PA were recovered in the periodate-treated sample. […] However, with reduction and carboxymethylation,methionine recoveries increased to 3.3 and 2.8 nmoles for the periodate-treated and untreated materials respectively. […] There was no significant difference in recovery of the other amino acids between the periodate-treated and untreated rt-PA (data not shown). […] The specific activity of the periodate-treated PA was 91% that of the control rt-PA as measured by an in vitro clot lysis assay (Collen, D. et al., J. Clin. Path, 21:705-707 [1968]).

[6] = glycosylated versus deglycosylated; cited from earlier work
[7] = effect of monosaccharides, rats; cited from earlier work
[8] = tested on: rat liver endothelial cells; details: cited from earlier work
[9] = effect of PMSF titration of active site or coinjection of diisopropylfluorophosphate thrombin, asialoorosomucoid, macroalbumin or excess unlabeled t-PA; mice; cited from earlier work
[10] = removal of sialic acid or chemical modification of carbohydrate; cited from earlier work
[11] = immunoreactive rt-PA (IR), unlabeled, 1 mg/kg, n=4, Table 4
[12] = unlabeled rt-PA, i.v. bolus, doses control 1.0, ENDO 0.83, periodate […], n=5, Table 3
[13] = TCA precipitable radioactivity, labeled, 3.4 μCi/kg, n=4, Table 4
[14] = labeled rt-PA 10 μCi/kg, coinjected with 1 mg/kg unmodified rt-PA, Table 5

Control: wild type recombinant human tissue-type plasminogen activator (rt-PA)
Microconstant K10 ([1]; unlabeled rt-PA): 227 min^-1 × 10^3
Microconstant K12 ([1]; unlabeled rt-PA): 35 min^-1 × 10^3
Microconstant K21 ([1]; unlabeled rt-PA): 42 min^-1 × 10^3
% AUCα [1, 11]: 81.5%
% AUCβ [1, 11]: 18.5%
Cl [1, 11]: 5.51 mL/min/kg
T1/2 α [1, 11]: 21.3 min
T1/2 β [1, 11]: 3.05 min
Vo [1, 11]: 0.03 L/kg
Cl [1, 12]: 9.57 mL/min/kg
T1/2 α [1, 12]: 2.61 min
T1/2 β [1, 12]: 19.6 min
elimination of labeled versus unlabeled rt-PA ([2]; TCA precipitable counts versus immunoreactivity): cleared more slowly
% AUCα [2, 13]: 62.1%
% AUCβ [2, 13]: 37.9%
Cl [2, 13]: 3.92 mL/min/kg
T1/2 α [2, 13]: 30.3 min
T1/2 β [2, 13]: 3.36 min
Vo [2, 13]: 0.0277 L/kg
% AUCα [2, 14]: 52%
% AUCβ [2, 14]: 48%
Cl [2, 14]: 5.72 mL/min/kg
T1/2 α [2, 14]: 2.55 min
T1/2 β [2, 14]: 14.9 min
Vo [2, 14]: 0.0315 L/kg
alpha phase half life [3]: about 2 min
alpha phase half life [4]: 4 min and 6 min
binding affinity (rat liver hepatocytes): bind with high affinity to rat liver hepatocytes
effect on fibrinogen levels in the blood [5]: minimal effects on fibrinogen levels in the blood
thrombolytic efficacy [5]: extremely effective thrombolytic agent
site of uptake and metabolism (liver): The liver is the most significant site of t-PA uptake and metabolism

Periodate
elimination ([1]; FIG. 4, unlabeled): slow the elimination of rt-PA
Microconstant K10 ([1]; unlabeled rt-PA): 63 min^-1 × 10^3
Microconstant K12 ([1]; unlabeled rt-PA): 72 min^-1 × 10^3
Microconstant K21 ([1]; unlabeled rt-PA): 54 min^-1 × 10^3
Vo, difference versus control ([1]; unlabeled): no significant differences
fold slower rate of clearance than control rt-PA ([1]; unlabeled): 2.7 fold
t1/2 alpha, change versus control ([1]; unlabeled): significant increase
t1/2 beta, difference versus control ([1]; unlabeled): no significant differences
Cl [1, 12]: 3.53 mL/min/kg
T1/2 α [1, 12]: 4.22 min
T1/2 β [1, 12]: 37.5 min
rate of clearance versus control ([2]; labeled): smaller rates of clearance than the control rt-PA
relative size of alpha and beta phase ([2]; labeled): the dominant change in the elimination pattern of the Endo-H and Periodate treated rt-PA again appears to be in the relative size of the alpha and beta phase
% AUCα [2, 14]: 32%
% AUCβ [2, 14]: 68%
Cl [2, 14]: 2.74 mL/min/kg
T1/2 α [2, 14]: 3.30 min
T1/2 β [2, 14]: 30.3 min
Vo [2, 14]: 0.0326 L/kg
specific activity relative to control rt-PA (clot; in vitro clot lysis assay, % of control rt-PA): 91%
fibrinolytic activity (clot; in vitro clot lysis, versus untreated control): did not alter the activity of the rt-PA significantly

deglycosylated human tissue-type plasminogen activator: deglycosylated human tissue-type plasminogen activator (Larsen et al.)
in vivo clearance rate [6]: not significantly different

melanoma-derived t-PA: t-PA isolated from melanoma cell line
clearance [7]: unaffected by monosaccharides
uptake [8]: a pathway that could be inhibited by high mannose glycoproteins
elimination [9]: unaffected

transferrin: transferrin, serum glycoprotein, after removal of sialic acid
half-life change [10]: no significant effect on half-life

urokinase
half-life change [10]: extending the half-life
